In the supplement of paper PMC6757056:
± gives the standard deviation of the averaged measurements.

B1: library; a variant is named by its letters at N, in order (parent)
chain: GCUGUCACCGGUGUAUUACCCUAGUGGUCGACCGGUCUGAUGAGUCUNNNNNNAGACGAAACAGC

Key:
hypoxanthine [1] = variants of: B1; assay: normalized RNA/DNA level with ligand (relative to sTRSVctl = 100) (log10 (% of sTRSVctl)); ligand: hypoxanthine (xanthine aptamer); higher = less ribozyme self-cleavage, higher mRNA level; settings: ligand concentration (+) RNA-Seq: 5 mM, HEK293T, reporter: mCherry (pCS4076), ligand present: yes
Summary of the method: (§1)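 HEK293T cells were transfected with library plasmids carrying ribozyme switches linked to an mCherry reporter, or an eGFP reporter in some ligand experiments, at 4 µg per well of a 6-well plate, with any ligand added 1 h beforehand. After 72 h, total RNA was extracted with EDTA, reverse-transcribed, amplified, barcoded and sequenced. RNA level was defined as RNA reads over DNA reads, normalized to a spiked-in non-cleaving sequence or to the top-ranked sequences. That value was multiplied by 100 and converted to log10, the top set was 25 sequences, and only sequences with ≥100 DNA reads were retained.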

hypoxanthine [2] = variants of: B1; assay: normalized RNA/DNA level without ligand (relative to sTRSVctl = 100) (log10 (% of sTRSVctl)); ligand: hypoxanthine (xanthine aptamer); higher = less ribozyme self-cleavage, higher mRNA level; settings: HEK293T, reporter: mCherry (pCS4076), ligand present: no
Summary of the method: as §1

GCUGUCACCGGUGUAUUACCCUAGUGGUCGACCGGUCUGAUGAGUCUAGAUAGAGACGAAACAGC
normalized RNA/DNA level with ligand (log10) (hypoxanthine [1]): 1.82 ± 0.025 | normalized RNA/DNA level without ligand (log10) (hypoxanthine [2]): 1.441 ± 0.0087

GCUGUCACCGGUGUAUUACCCUAGUGGUCGACCGGUCUGAUGAGUCUAGAGGCAGACGAAACAGC
normalized RNA/DNA level with ligand (log10) (hypoxanthine [1]): 1.987 ± 0.014 | normalized RNA/DNA level without ligand (log10) (hypoxanthine [2]): 1.86 ± 0.068

GCUGUCACCGGUGUAUUACCCUAGUGGUCGACCGGUCUGAUGAGUCUAGAGGGAGACGAAACAGC
normalized RNA/DNA level with ligand (log10) (hypoxanthine [1]): 1.837 ± 0.0044 | normalized RNA/DNA level without ligand (log10) (hypoxanthine [2]): 1.44 ± 0.035

GCUGUCACCGGUGUAUUACCCUAGUGGUCGACCGGUCUGAUGAGUCUGGAUAUAGACGAAACAGC
normalized RNA/DNA level with ligand (log10) (hypoxanthine [1]): 1.9 ± 0.023 | normalized RNA/DNA level without ligand (log10) (hypoxanthine [2]): 1.78 ± 0.028

GCUGUCACCGGUGUAUUACCCUAGUGGUCGACCGGUCUGAUGAGUCUAGAGUCAGACGAAACAGC
normalized RNA/DNA level with ligand (log10) (hypoxanthine [1]): 1.937 ± 0.017 | normalized RNA/DNA level without ligand (log10) (hypoxanthine [2]): 1.8831 ± 0.0015

GCUGUCACCGGUGUAUUACCCUAGUGGUCGACCGGUCUGAUGAGUCUAGAGUUAGACGAAACAGC
normalized RNA/DNA level with ligand (log10) (hypoxanthine [1]): 1.905 ± 0.0059 | normalized RNA/DNA level without ligand (log10) (hypoxanthine [2]): 1.8267 ± 0.0011

GCUGUCACCGGUGUAUUACCCUAGUGGUCGACCGGUCUGAUGAGUCUAGAGUGAGACGAAACAGC
normalized RNA/DNA level with ligand (log10) (hypoxanthine [1]): 1.82 ± 0.047 | normalized RNA/DNA level without ligand (log10) (hypoxanthine [2]): 1.331 ± 0.0048

GCUGUCACCGGUGUAUUACCCUAGUGGUCGACCGGUCUGAUGAGUCUCGAGUAAGACGAAACAGC
normalized RNA/DNA level with ligand (log10) (hypoxanthine [1]): 1.928 ± 0.013 | normalized RNA/DNA level without ligand (log10) (hypoxanthine [2]): 1.72 ± 0.042

GCUGUCACCGGUGUAUUACCCUAGUGGUCGACCGGUCUGAUGAGUCUCGAGUGAGACGAAACAGC
normalized RNA/DNA level with ligand (log10) (hypoxanthine [1]): 1.92 ± 0.0018 | normalized RNA/DNA level without ligand (log10) (hypoxanthine [2]): 1.76 ± 0.04

GCUGUCACCGGUGUAUUACCCUAGUGGUCGACCGGUCUGAUGAGUCUUGAGGUAGACGAAACAGC
normalized RNA/DNA level with ligand (log10) (hypoxanthine [1]): 1.94 ± 0.035 | normalized RNA/DNA level without ligand (log10) (hypoxanthine [2]): 1.665 ± 0.015

GCUGUCACCGGUGUAUUACCCUAGUGGUCGACCGGUCUGAUGAGUCUUGAGGGAGACGAAACAGC
normalized RNA/DNA level with ligand (log10) (hypoxanthine [1]): 1.87 ± 0.036 | normalized RNA/DNA level without ligand (log10) (hypoxanthine [2]): 1.514 ± 0.0058

GCUGUCACCGGUGUAUUACCCUAGUGGUCGACCGGUCUGAUGAGUCUUGAGGCAGACGAAACAGC
normalized RNA/DNA level with ligand (log10) (hypoxanthine [1]): 1.94 ± 0.03 | normalized RNA/DNA level without ligand (log10) (hypoxanthine [2]): 1.9 ± 0.079

GCUGUCACCGGUGUAUUACCCUAGUGGUCGACCGGUCUGAUGAGUCUCGAUAUAGACGAAACAGC
normalized RNA/DNA level with ligand (log10) (hypoxanthine [1]): 1.911 ± 0.0083 | normalized RNA/DNA level without ligand (log10) (hypoxanthine [2]): 1.74 ± 0.024

GCUGUCACCGGUGUAUUACCCUAGUGGUCGACCGGUCUGAUGAGUCUUGAGUAAGACGAAACAGC
normalized RNA/DNA level with ligand (log10) (hypoxanthine [1]): 1.902 ± 0.015 | normalized RNA/DNA level without ligand (log10) (hypoxanthine [2]): 1.81 ± 0.091

GCUGUCACCGGUGUAUUACCCUAGUGGUCGACCGGUCUGAUGAGUCUUGAGUUAGACGAAACAGC
normalized RNA/DNA level with ligand (log10) (hypoxanthine [1]): 1.92 ± 0.039 | normalized RNA/DNA level without ligand (log10) (hypoxanthine [2]): 1.85 ± 0.042

GCUGUCACCGGUGUAUUACCCUAGUGGUCGACCGGUCUGAUGAGUCUGGAGUAAGACGAAACAGC
normalized RNA/DNA level with ligand (log10) (hypoxanthine [1]): 1.896 ± 0.009 | normalized RNA/DNA level without ligand (log10) (hypoxanthine [2]): 1.77 ± 0.018

GCUGUCACCGGUGUAUUACCCUAGUGGUCGACCGGUCUGAUGAGUCUGGAGUUAGACGAAACAGC
normalized RNA/DNA level with ligand (log10) (hypoxanthine [1]): 1.97 ± 0.038 | normalized RNA/DNA level without ligand (log10) (hypoxanthine [2]): 1.881 ± 0.0061

GCUGUCACCGGUGUAUUACCCUAGUGGUCGACCGGUCUGAUGAGUCUGGAGGGAGACGAAACAGC
normalized RNA/DNA level with ligand (log10) (hypoxanthine [1]): 1.883 ± 0.018 | normalized RNA/DNA level without ligand (log10) (hypoxanthine [2]): 1.493 ± 0.0022

GCUGUCACCGGUGUAUUACCCUAGUGGUCGACCGGUCUGAUGAGUCUUGAUACAGACGAAACAGC
normalized RNA/DNA level with ligand (log10) (hypoxanthine [1]): 1.926 ± 0.0041 | normalized RNA/DNA level without ligand (log10) (hypoxanthine [2]): 1.848 ± 0.011

GCUGUCACCGGUGUAUUACCCUAGUGGUCGACCGGUCUGAUGAGUCUUGAUAAAGACGAAACAGC
normalized RNA/DNA level with ligand (log10) (hypoxanthine [1]): 1.91 ± 0.028 | normalized RNA/DNA level without ligand (log10) (hypoxanthine [2]): 1.8144 ± 0.0015

GCUGUCACCGGUGUAUUACCCUAGUGGUCGACCGGUCUGAUGAGUCUUGAUAGAGACGAAACAGC
normalized RNA/DNA level with ligand (log10) (hypoxanthine [1]): 1.88 ± 0.04 | normalized RNA/DNA level without ligand (log10) (hypoxanthine [2]): 1.7 ± 0.041
